The results in this text go back to US20250333518A1 (ROCK BIOMEDICAL, published 2025).

This experiment addresses T1, CD20 (UniProt P11836 1-297, limits assumed).
T1 construct: also called the antigen (of Rituximab and Obinutuzumab)
T1 sequence (looked up): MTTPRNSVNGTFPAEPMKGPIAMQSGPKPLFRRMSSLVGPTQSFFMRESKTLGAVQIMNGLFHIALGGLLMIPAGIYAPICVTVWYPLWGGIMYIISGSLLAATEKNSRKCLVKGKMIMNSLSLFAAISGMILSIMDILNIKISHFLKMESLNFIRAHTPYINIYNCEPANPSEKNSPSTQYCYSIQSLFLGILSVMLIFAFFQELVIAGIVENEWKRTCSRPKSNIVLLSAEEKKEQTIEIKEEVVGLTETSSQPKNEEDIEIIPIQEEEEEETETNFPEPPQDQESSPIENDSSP
Description: ELISA, target binding. In general terms: In an ELISA, binding on a coated surface is turned into a signal by an enzyme label.

A word on the EC50: it is the concentration that produces a half-maximal response.

B1: Rituximab (MabThera® or Rituxan®) population produced by the SAII A3 Fut8 KO cells according to the present disclosure (antibody, human IgG1, kappa, V domains shown)
VH: QVQLQQPGAELVKPGASVKMSCKASGYTFTSYNMHWVKQTPGRGLEWIGAIYPGNGDTSYNQKFKGKATLTADKSSSTAYMQLSSLTSEDSAVYYCARSTYYGGDWYFNVWGAGTTVTVSA
VL: QIVLSQSPAILSASPGEKVTMTCRASSSVSYIHWFQQKPGSSPKPWIYATSNLASGVPVRFSGSGSGTSYSLTISRVEAEDAATYYCQQWTSNPPTFGGGTKLEIKR
modifications: N-glycan: sialylated complex type glycans around 83.4% of the glycans, no core fucose
notes: Differs from the commercial product in the glycan profile only; also called Biobetter Rituximab; glycoengineered MabThera®
In the case of B1, the EC50 worked out at 0.77 nM.

B2: Rituximab, commercially available product (MabThera®) (antibody, human IgG1, kappa, V domains shown)
VH: B1 VH
VL: B1 VL
notes: Bought product; also called Rituxan
The molecule B2 registered an EC50 of 0.544 nM.
